Measurements reported in patent US11795460B2, “Compositions and methods for TTR gene editing and treating ATTR amyloidosis” (Intellia Therapeutics, Inc., priority 2017, dated 2023).
Strand notation (5' to 3'): a small letter for the sugar, then the base; units joined by * are phosphorothioate-linked, units joined directly phosphodiester-linked; [ ] holds rarer units or linkages, { } end groups; capitals alone tell only the bases. m = 2'-O-methyl; r = 2'-OH (RNA)

Tests used:
human TTR sequence = assay: Liver editing in humanized TTR mice dosed with LNP formulations (Table 26); assay type: in vivo, mouse; details: for % Editing: Table 26, liver editing, LNP Formulation Numbers 6-16, 1 mg/kg (total RNA content); for Liver editing: LNP Formulation Numbers 1-5, Cas9 mRNA SEQ ID NO:2, 2 mg/kg total RNA, mean values, FIG. 9
Experimental: Unless otherwise noted, CD-1 female mice, ranging from 6-10 weeks of age were used in each study. Animals were weighed and grouped according to body weight for preparing dosing solutions based on group average weight. LNPs were dosed via the lateral tail vein in a volume of 0.2 mL per animal (approximately 10 mL per kilogram body weight). […] Body weight was measured at twenty-four hours post-administration, and animals were euthanized at various time points by exsanguination via cardiac puncture under isoflourane anesthesia. Blood was collected into serum separator tubes or into tubes containing buffered sodium citrate for plasma as described herein. For studies involving in vivo editing, liver tissue was collected from the median lobe or from three independent lobes (e.g., the right median, left median, and left lateral lobes) from each animal for DNA extraction and analysis.
To quantitatively determine the efficiency of editing at the target location in the genome, sequencing was utilized to identify the presence of insertions and deletions introduced by gene editing.
Primers were designed around the target site within the gene of interest (e.g. TTR), and the genomic area of interest was amplified.
Additional PCR was performed per the manufacturer's protocols (Illumina) to add chemistry for sequencing. The amplicons were sequenced on an Illumina MiSeq instrument. The reads were aligned to a reference genome (e.g., the human reference genome (hg38), the cynomologus reference genome (mf5), the rat reference genome (rn6), or the mouse reference genome (mm10)) after eliminating those having low quality scores. The resulting files containing the reads were mapped to the reference genome (BAM files), where reads that overlapped the target region of interest were selected and the number of wild type reads versus the number of reads which contain an insertion, substitution, or deletion was calculated.
The editing percentage (e.g., the “editing efficiency” or “percent editing” or “indel frequency”) is defined as the total number of sequence reads with insertions/deletions (“indels”) or substitutions over the total number of sequence reads, including wild type.
Mice humanized with respect to the TTR gene were dosed with LNP formulations 701-704 containing the guides indicated in Table 25 (5 mice per formulation). These humanized TTR mice were engineered such that a region of the endogenous murine TTR locus was deleted and replaced with an orthologous human TTR sequence so that the locus encodes a human TTR protein. For comparison, 6 mice with murine TTR were dosed with LNP700, containing a guide (G000282) targeting murine TTR. […]

[1] = test system: potential off-target sites; assay: Targeted amplicon sequencing of potential off-target sites in PHH treated with LNPs (Tables 31-33); assay type: cell-based, human; details: for Indel Frequency (using LNP with 100 ng Cas9 mRNA and 14.68 nM gRNA) / Indel rate at the on-target site / Indels at in silico predicted off-target sites / Number of potential off-target sites identified by the oligo insertion assay at which indels were detected: PHH treated with LNP; for Indel Frequency (using LNP with 100 ng Cas9 mRNA and 14.68 nM gRNA): NGS targeted amplicon sequencing; for Indel rate at the on-target site / Indels at in silico predicted off-target sites / Number of potential off-target sites identified by the oligo insertion assay at which indels were detected: 100 ng Cas9 mRNA (SEQ ID NO:1), near-saturating dose; for Indel rate at the on-target site: gRNA 14.68 nM; for Number of potential off-target sites identified by the oligo insertion assay at which indels were detected: indels at low levels; for On-target indel rate at highest concentration without detected off-target sites / Highest gRNA concentration at which the potential off-target sites were no longer detected: PHH; for On-target indel rate at highest concentration without detected off-target sites: G000480 at 0.57 nM, G000486 at 15.51 nM gRNA; for Highest gRNA concentration at which the potential off-target sites were no longer detected: LNP dose response, 11 points 0.001-46.55 nM gRNA
Experimental: The HEK293_Cas9 cells used in Example 5 for detecting potential off-targets constitutively overexpress Cas9, leading to a higher number of potential off-target “hits” as compared to a transient delivery paradigm in various cell types. […] Accordingly, potential off-target sites identified by an oligo insertion method as used in Example 5 may be validated using targeted sequencing of the identified potential off-target sites.
In one approach, primary hepatocytes are treated with LNPs comprising Cas9 mRNA and a sgRNA of interest (e.g., a sgRNA having potential off-target sites for evaluation). The primary hepatocytes are then lysed and primers flanking the potential off-target site(s) are used to generate an amplicon for NGS analysis. Identification of indels at a certain level may validate potential off-target site, whereas the lack of indels found at the potential off-target site may indicate a false positive in the HEK293_Cas9 cell assay.
Following the identification of potential off-target sites in […] via the oligo insertion assay, certain potential sites were further evaluated by targeted amplicon sequencing, e.g., as described in Example 6. In addition to the potential off-target sites identified by the oligo insertion strategy, additional potential off-target sites identified by in silico prediction were included in the analysis.
To this end, PHH were treated with LNPs comprising 100 ng of Cas9 mRNA (SEQ ID NO:1) and the gRNA of interest at 14.68 nM (in a 1:1 ratio by weight), as described in Example 4. The LNPs were prepared using the cross-flow procedure described above and purified and concentrated using PD-10 columns and Amicon centrifugal filter units, respectively. The LNPs were formulated with an N:P ratio of 6.0 and contained Lipid A, Cholesterol, DSPC, and PEG2k-DMG in a 50:38:9:2 molar ratio, respectively. Following LNP treatment, isolated genomic DNA was analyzed by NGS (e.g., as described in Examples 1 and 6) to determine whether indels could be detected at the potential off-target site, which would be indicative of a Cas9-mediated cleavage event. Tables 31 and 32 show the potential off-target sites that were evaluated for the gRNAs G000480 and G000486, respectively.
As shown in FIGS. 21A-B and 22A-B and Table 33 below, indels were detected at low levels for only two of the potential off-target sites identified by the oligo insertion assay for G000480, and only one for G000486. […] Further, indels were only detected at these sites using a near-saturating dose of LNP, as the indel rates observed at the on-target sites for G000480 and G000486 were ˜97% and ˜91%, respectively (See Table 33).
A dose response assay was then performed in order to determine the highest dose of LNP in which no off-targets were detected. PHH were treated with LNPs comprising either G000480 or G000486 as described in Example 4. The doses ranged across 11 points with respect to gRNA concentration (0.001 nM, 0.002 nM, 0.007 nM, 0.02 nM, 0.06 nM, 0.19 nM, 0.57 nM, 1.72 nM, 5.17 nM, 15.51 nM, and 46.55 nM).

[2] = Off-Target site INS-OT.4 (of the respective guide)

Molecule | % Editing (human TTR sequence) | Indel Frequency (using LNP with 100 ng Cas9 mRNA and 14.68 nM gRNA) [1, 2] | Indel Frequency (using LNP with 100 ng Cas9 mRNA and 14.68 nM gRNA) ([1]; On-Target site) | Indel rate at the on-target site [1] | Indels at in silico predicted off-target sites [1] | Number of potential off-target sites identified by the oligo insertion assay at which indels were detected [1] | On-target indel rate at highest concentration without detected off-target sites [1] | Highest gRNA concentration at which the potential off-target sites were no longer detected [1] | Liver editing (human TTR sequence) | Indel Frequency (using LNP with 100 ng Cas9 mRNA and 14.68 nM gRNA) ([1]; Off-Target site INS-OT.2)
G000481: TTR sgRNA modified sequence, Human, SEQ ID No. 88; guide sequence of CR003345 (nucleic acid) guide: mU*mC*mU*rArGrArArCrUrUrUrGrArCrCrArUrCrArGrGrUrUrUrUrArGrAmGmCmUmAmGmAmAmAmUmAmGmCrArArGrUrUrArArArArUrArArGrGrCrUrArGrUrCrCrGrUrUrArUrCrAmAmCmUmUmGmAmAmAmAmAmGmUmGmGmCmAmCmCmGmAmGmUmCmGmGmUmGmCmU*mU*mU*mU | 61.28% |  |  |  |  |  |  |  |  | 
G000486: TTR sgRNA modified sequence, Human, SEQ ID No. 93; guide sequence of CR003339 (nucleic acid) guide: mA*mC*mA*rCrArArArUrArCrCrArGrUrCrCrArGrCrArGrUrUrUrUrArGrAmGmCmUmAmGmAmAmAmUmAmGmCrArArGrUrUrArArArArUrArArGrGrCrUrArGrUrCrCrGrUrUrArUrCrAmAmCmUmUmGmAmAmAmAmAmGmUmGmGmCmAmCmCmGmAmGmUmCmGmGmUmGmCmU*mU*mU*mU |  | 0.47% | 91.33% | ~91% | No indels were detected | one | 89.50% | 15.51 nM |  | 
G000494: TTR sgRNA modified sequence, Human, SEQ ID No. 101; guide sequence of CR003360 (nucleic acid) guide: mG*mU*mG*rArGrUrCrUrGrGrArGrArGrCrUrGrCrArUrGrUrUrUrUrArGrAmGmCmUmAmGmAmAmAmUmAmGmCrArArGrUrUrArArArArUrArArGrGrCrUrArGrUrCrCrGrUrUrArUrCrAmAmCmUmUmGmAmAmAmAmAmGmUmGmGmCmAmCmCmGmAmGmUmCmGmGmUmGmCmU*mU*mU*mU |  |  |  |  |  |  |  |  | ~60% | 
G000480: TTR sgRNA modified sequence, Human, SEQ ID No. 87; guide sequence of CR003353 (nucleic acid) guide: mA*mA*mA*rGrGrCrUrGrCrUrGrArUrGrArCrArCrCrUrGrUrUrUrUrArGrAmGmCmUmAmGmAmAmAmUmAmGmCrArArGrUrUrArArArArUrArArGrGrCrUrArGrUrCrCrGrUrUrArUrCrAmAmCmUmUmGmAmAmAmAmAmGmUmGmGmCmAmCmCmGmAmGmUmCmGmGmUmGmCmU*mU*mU*mU |  | 0.97% | 97.33% | ~97% | No indels were detected | two | 84.60% | 0.57 nM |  | 1.43%
G000499: TTR sgRNA modified sequence, Human, SEQ ID No. 106; guide sequence of CR005303 (nucleic acid) guide: mU*mG*mA*rArUrCrCrArArGrUrGrUrCrCrUrCrUrGrArGrUrUrUrUrArGrAmGmCmUmAmGmAmAmAmUmAmGmCrArArGrUrUrArArArArUrArArGrGrCrUrArGrUrCrCrGrUrUrArUrCrAmAmCmUmUmGmAmAmAmAmAmGmUmGmGmCmAmCmCmGmAmGmUmCmGmGmUmGmCmU*mU*mU*mU | 65.66% |  |  |  |  |  |  |  | ~60% | 
